Assays:
Format in all cases: biochemical
[1] = test system: Trypsin; experiment: Protease inhibitory activity assay, trypsin; conditions: 1 μM inhibitor; trypsin 8 nM; H-D-Val-Leu-Lys-pNA 0.6 mM; 25° C.
Method: Trypsin (8 nM) H--D--Val--Leu--Lys--pNA
(§1) Inhibition assays were performed in microtiter wells in a total volume of 300 μl in 10 mM NaCl, 50 mM Tris-HCl (pH 7.4), 0.01% TWEEN80 (Polyoxyethylenesorbitan monoleate). The reactions were incubated at 25° C. for ten minutes after which the appropriate chromogenic substrate was added to the final concentration listed in Table 2 and the final reaction was incubated for thirty minutes at 25° C. Amidolytic activity was measured at 405 nm or by fluorescence Em at 460 nm.

[2] = test system: GL Kallikrein (glandular kallikrein); experiment: Protease inhibitory activity assay, glandular kallikrein; conditions: 1 μM inhibitor; GL kallikrein 1 U/ml; H-D-Val-Leu-Arg-pNA 0.6 mM; 25° C.
Method: H--D--Val--Leu--Arg--pNA
(§2) Abbreviations in Table 2: rec. refers to recombinant, GL kallikrein refer
(§3) to glandular kallikrein, and PL kallikrein refers to plasma kallikrein.
as §1

[3] = target: T1, human Factor XIIa (Homo sapiens, UniProt P00748); experiment: Protease inhibitory activity assay, Factor XIIa; conditions: 1 μM inhibitor; Factor XIIa 30 nM; H-D-Pro-Phe-Arg-pNA 0.6 mM; 25° C.
T1 construct: human Factor XIIa (30 nM); purchased Dr. Walt Kisiel, University of New Mexico, Albuquerque, NM
T1 sequence (P00748 20-372 limits assumed): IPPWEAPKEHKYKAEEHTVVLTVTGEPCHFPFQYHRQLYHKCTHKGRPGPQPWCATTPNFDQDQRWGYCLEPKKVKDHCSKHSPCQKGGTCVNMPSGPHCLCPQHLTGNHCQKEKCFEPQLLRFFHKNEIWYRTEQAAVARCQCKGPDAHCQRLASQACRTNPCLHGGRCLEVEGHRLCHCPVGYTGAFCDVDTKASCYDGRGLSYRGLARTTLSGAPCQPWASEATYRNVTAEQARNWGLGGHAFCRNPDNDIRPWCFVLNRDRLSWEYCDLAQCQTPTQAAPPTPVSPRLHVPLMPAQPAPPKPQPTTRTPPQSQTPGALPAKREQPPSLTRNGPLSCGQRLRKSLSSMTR
T1 sequence (P00748 373-615 limits assumed): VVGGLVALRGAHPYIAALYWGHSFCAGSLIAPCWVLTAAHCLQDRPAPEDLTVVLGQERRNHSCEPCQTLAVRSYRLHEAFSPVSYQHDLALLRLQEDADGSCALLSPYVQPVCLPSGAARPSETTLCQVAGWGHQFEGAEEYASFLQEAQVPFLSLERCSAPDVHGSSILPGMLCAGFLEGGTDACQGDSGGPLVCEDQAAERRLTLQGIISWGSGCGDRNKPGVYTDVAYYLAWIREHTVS
Method: human Factor XIIa (30 nM)
(§4) H--D--Pro--Phe--Arg--pNA
as §1

[4] = target: T2, Urokinase (Homo sapiens, UniProt P00749); experiment: Protease inhibitory activity assay, urokinase; conditions: 1 μM inhibitor; urokinase 5 nM; <Glu-Gly-Arg-pNA 0.6 mM; 25° C.
T2 construct: purchased Serono, Freigung, Germany
Method: as §1

[5] = target: T3, Plasmin (Homo sapiens, UniProt P00747); experiment: Protease inhibitory activity assay, plasmin; conditions: 1 μM inhibitor; plasmin 10 nM; H-D-Val-Leu-Lys-pNA 0.6 mM; 25° C.
T3 construct: Plasmin (10 nM); purchased Kabi
Method: H--D--Val--Leu--Lys--pNA
as §1

[6] = target: T4, rec. Protein Ca (activated protein C) (Homo sapiens, UniProt P04070); experiment: Protease inhibitory activity assay, activated protein C; conditions: 1 μM inhibitor; rec. Protein Ca 5 nM; <Glu-Pro-Arg-pNA 0.6 mM; 25° C.
T4 construct: purchased Novo Nordisk A/S
Method: as §1
r.h. refers to recombinant human, h. refers to human, protein Ca refers t
activated protein C; APPH refers to the KunitzType inhibitor domain of […]

[7] = target: T5, Cathepsin G (Homo sapiens, UniProt P08311); experiment: Protease inhibitory activity assay, cathepsin G; conditions: 1 μM inhibitor; Suc-Ala-Ala-Pro-Phe-pNA 0.6 mM; 25° C.
T5 construct: purified at Novo Nordisk A/S; tissue Novo Nordisk A/S (purified there); host or cells: leukocytes (by the cited method)
T5 sequence (P08311 21-255): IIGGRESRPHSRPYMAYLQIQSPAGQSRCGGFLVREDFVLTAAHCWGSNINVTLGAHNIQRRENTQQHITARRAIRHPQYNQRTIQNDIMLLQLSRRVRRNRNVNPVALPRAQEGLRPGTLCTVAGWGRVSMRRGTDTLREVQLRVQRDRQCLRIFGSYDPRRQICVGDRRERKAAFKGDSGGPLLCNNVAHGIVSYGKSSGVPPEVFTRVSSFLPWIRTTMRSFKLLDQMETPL
Method: Cathepsin G Suc--Ala--Ala--Pro--Phe--pNA
(§5) purified at Novo Nordisk A/S
(0.6 mM) (SEQ ID NO: 19)
as §1

[8] = target: T6, human Factor Xa (Homo sapiens, UniProt P00742); experiment: Protease inhibitory activity assay, Factor Xa; conditions: 1 μM inhibitor; Factor Xa 3 nM; MeO-CO-CHA-Gly-Arg-pNA 0.3 mM; 25° C.
T6 construct: human Factor Xa (3 nM); purchased Dr. I. Schousboe, Copenhagen, Denmark
Method: The reactions were incubated at 25° C. for ten minutes after which the appropriate chromogenic substrate was added to the final concentration listed in Table 2 and the final reaction was incubated for thirty minutes at 25° C. Amidolytic activity was measured at 405 nm or by fluorescence Em at 460 nm.

[9] = target: T7, human Factor XIa (Homo sapiens, UniProt P03951); experiment: Protease inhibitory activity assay, Factor XIa; conditions: 1 μM inhibitor; Factor XIa 1 nM; Boc-Glu(OBzl)-Ala-Arg-MCA 0.12 mM; 25° C.
T7 construct: human Factor XIa (1 nM); purchased Dr. Kazuo Fujikawa, University of Washington, Seattle, WA
Method: Boc--Glu(OBzl)--Ala--Arg--MCA
as §1

[10] = target: T8, Leukocyte Elastase (Homo sapiens, UniProt P08246); experiment: Protease inhibitory activity assay, leukocyte elastase; conditions: 1 μM inhibitor; MeO-Suc-Ala-Ala-Pro-Val-pNA 0.6 mM; 25° C.
T8 construct: purified at Novo Nordisk A/S; tissue Novo Nordisk A/S (purified there); host or cells: leukocytes
T8 sequence (P08246 30-267): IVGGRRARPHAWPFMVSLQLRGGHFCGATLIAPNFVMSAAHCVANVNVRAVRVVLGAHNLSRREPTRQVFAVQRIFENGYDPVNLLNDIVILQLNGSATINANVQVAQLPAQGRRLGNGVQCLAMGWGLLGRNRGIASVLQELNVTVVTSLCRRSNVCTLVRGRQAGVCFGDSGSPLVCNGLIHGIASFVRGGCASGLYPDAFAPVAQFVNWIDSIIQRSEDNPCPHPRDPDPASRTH
Method: MeO--Suc--Ala--Ala--Pro--Val--pNA
as §5, §1

[11] = target: T9, PL Kallikrein (plasma kallikrein) (Homo sapiens, UniProt P03952); experiment: Protease inhibitory activity assay, plasma kallikrein; conditions: 1 μM inhibitor; PL kallikrein 3 nM; H-D-Pro-Phe-Arg-pNA 0.6 mM; 25° C.
T9 construct: purchased Kabi
Method: as §4, §2, §3, §1

[12] = test system: Chymotrypsin; experiment: Protease inhibitory activity assay, chymotrypsin; conditions: 1 μM inhibitor; chymotrypsin 2.5 nM; MeO-Suc-Arg-Pro-Tyr-pNA 0.6 mM; 25° C.
Method: MeO--Suc--Arg--Pro--Tyr--pNA
as §1

[13] = target: T10, rec. human Factor VIIa (Homo sapiens, UniProt P08709); experiment: Protease inhibitory activity assay, Factor VIIa; conditions: 1 μM inhibitor; Factor VIIa 300 nM; H-D-Ile-Pro-Arg-pNA 0.6 mM; 25° C.
T10 construct: rec. human Factor VIIa; purchased Novo Nordisk A/S
T10 sequence (P08709 61-212 limits assumed): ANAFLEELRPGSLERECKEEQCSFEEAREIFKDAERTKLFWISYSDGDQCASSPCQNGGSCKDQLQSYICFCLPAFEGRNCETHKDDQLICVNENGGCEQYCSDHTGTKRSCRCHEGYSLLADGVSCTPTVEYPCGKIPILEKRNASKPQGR
T10 sequence (P08709 213-466 limits assumed): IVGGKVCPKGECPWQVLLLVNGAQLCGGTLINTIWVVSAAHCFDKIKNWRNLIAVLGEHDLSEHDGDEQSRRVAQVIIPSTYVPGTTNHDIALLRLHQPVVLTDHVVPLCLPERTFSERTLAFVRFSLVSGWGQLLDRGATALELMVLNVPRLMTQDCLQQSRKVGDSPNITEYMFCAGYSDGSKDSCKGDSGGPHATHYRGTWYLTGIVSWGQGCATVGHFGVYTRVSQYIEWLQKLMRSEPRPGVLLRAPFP
Method: H--D--Ile--Pro--Arg--pNA
as §1

T9 sequence (P03952 20-390 limits assumed): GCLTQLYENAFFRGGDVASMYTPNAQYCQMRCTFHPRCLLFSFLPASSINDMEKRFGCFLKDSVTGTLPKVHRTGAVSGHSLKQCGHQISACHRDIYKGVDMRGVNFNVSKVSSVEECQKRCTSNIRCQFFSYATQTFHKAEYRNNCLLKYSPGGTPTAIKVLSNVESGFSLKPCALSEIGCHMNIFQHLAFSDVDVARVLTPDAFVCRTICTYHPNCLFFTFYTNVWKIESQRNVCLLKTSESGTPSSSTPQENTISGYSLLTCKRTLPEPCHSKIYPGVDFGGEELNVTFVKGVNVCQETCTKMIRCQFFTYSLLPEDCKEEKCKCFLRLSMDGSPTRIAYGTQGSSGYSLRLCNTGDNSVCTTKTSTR
T9 sequence (P03952 391-638 limits assumed): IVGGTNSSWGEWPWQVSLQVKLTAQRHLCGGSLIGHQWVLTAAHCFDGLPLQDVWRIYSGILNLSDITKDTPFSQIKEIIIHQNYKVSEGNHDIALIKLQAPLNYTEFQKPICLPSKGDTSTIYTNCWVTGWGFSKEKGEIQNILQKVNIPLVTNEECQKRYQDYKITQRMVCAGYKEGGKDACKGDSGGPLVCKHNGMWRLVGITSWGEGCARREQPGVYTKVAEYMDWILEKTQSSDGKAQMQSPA
T7 sequence (P03951 19-387 limits assumed): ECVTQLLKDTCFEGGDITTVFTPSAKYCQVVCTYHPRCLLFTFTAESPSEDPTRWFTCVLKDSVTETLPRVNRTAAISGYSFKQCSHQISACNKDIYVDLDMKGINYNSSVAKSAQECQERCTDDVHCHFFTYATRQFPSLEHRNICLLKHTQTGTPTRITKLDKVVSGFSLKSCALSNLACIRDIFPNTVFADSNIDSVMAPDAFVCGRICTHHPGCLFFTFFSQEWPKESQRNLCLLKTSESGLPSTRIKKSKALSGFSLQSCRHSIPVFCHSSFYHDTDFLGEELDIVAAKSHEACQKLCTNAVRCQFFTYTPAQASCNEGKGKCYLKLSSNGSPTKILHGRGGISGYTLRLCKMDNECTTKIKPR
T7 sequence (P03951 388-625 limits assumed): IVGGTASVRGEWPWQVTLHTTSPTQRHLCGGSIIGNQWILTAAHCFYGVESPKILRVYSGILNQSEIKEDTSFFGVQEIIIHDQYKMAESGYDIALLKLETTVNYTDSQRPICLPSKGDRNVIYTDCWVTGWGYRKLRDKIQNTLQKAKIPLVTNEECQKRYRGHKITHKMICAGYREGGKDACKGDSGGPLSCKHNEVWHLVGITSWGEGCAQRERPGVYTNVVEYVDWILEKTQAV
T4 sequence (P04070 43-197 limits assumed): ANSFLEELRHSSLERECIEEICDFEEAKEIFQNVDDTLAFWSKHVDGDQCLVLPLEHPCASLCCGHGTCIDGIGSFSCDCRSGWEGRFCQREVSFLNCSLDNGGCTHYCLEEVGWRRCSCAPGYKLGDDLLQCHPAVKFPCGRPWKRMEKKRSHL
T4 sequence (P04070 212-461 limits assumed): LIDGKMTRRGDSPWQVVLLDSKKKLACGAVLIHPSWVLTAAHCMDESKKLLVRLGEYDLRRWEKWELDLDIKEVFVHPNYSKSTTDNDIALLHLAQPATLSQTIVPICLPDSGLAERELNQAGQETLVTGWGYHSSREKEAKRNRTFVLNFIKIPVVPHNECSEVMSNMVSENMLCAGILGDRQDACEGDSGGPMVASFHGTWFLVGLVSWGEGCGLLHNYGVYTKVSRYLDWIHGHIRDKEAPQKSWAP
T6 sequence (P00742 41-179 limits assumed): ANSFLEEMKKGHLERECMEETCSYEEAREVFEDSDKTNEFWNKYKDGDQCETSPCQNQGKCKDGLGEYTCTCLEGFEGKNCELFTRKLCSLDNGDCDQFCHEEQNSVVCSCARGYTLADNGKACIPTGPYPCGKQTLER
T6 sequence (P00742 235-488 limits assumed): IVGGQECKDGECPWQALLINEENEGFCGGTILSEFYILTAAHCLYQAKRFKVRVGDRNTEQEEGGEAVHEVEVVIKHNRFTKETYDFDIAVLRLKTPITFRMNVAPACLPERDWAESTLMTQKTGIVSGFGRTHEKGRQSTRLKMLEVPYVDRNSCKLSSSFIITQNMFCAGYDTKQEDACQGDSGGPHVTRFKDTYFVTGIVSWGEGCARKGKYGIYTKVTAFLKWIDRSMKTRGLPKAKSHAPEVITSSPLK
T3 sequence (P00747 97-580 limits assumed): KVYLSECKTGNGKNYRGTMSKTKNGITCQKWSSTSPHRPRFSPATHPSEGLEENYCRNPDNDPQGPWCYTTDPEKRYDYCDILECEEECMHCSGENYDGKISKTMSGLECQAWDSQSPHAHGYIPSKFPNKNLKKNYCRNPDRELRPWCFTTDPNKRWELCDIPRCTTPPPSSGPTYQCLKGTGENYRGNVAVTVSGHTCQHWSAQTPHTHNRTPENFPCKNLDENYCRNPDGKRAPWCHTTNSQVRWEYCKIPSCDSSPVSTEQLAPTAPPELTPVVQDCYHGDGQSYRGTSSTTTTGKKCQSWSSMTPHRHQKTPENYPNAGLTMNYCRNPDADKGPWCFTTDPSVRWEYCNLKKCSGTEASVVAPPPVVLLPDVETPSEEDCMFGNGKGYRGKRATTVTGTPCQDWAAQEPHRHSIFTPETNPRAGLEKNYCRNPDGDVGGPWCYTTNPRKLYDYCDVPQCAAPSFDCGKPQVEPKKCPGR
T3 sequence (P00747 581-810 limits assumed): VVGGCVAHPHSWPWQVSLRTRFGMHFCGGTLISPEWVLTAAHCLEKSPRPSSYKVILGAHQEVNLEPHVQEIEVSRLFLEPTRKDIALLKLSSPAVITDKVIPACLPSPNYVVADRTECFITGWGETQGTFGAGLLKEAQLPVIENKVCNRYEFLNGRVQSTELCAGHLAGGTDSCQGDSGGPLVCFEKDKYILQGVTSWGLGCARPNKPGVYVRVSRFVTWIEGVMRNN

% Inhibition, h. Factor XIIa [3]: 6%
% Inhibition, Urokinase [4]: 2%
% Inhibition, Plasmin [5]: 77%
% Inhibition, r.h. Protein Ca [6]: 0%
% Inhibition, Cathepsin G [7]: 0%
% Inhibition, h. Factor Xa [8]: 0%
% Inhibition, h. Factor XIa [9]: 99.8%
% Inhibition, Leukocyte Elastase [10]: 4%
% Inhibition, PL Kallikrein [11]: 69%
% Inhibition, r.h. Factor VIIa [13]: 15%
B1: APPH: Kunitz-type inhibitor domain of the human amyloid protein precursor homologue (SEQ ID NO:2 region 53/56/57-110), expressed in yeast (protein)
chain: GYIEALAANAGTGFAVAEPQIAMFCGKLNMHVNIQTGKWEPDPTGTKSCFETKEEVLQYCQEMYPELQITNVMEANQRVSIDNWCRRDKKQCKSRFVTPFKCLVGEFVSDVLLVPEKCQFFHKERMEVCENHQHWHTVVKEACLTQGMTLYSYGMLLPCGVDQFHGTEYVCCPQTKIIGSVSKEEEEEDEEEEEEEDEEEDYDVYKSEFPTEADLEDFTEAAVDEDDEDEEEGEEVVEDRDYYYDTFKGDDYNEENPTEPGSDGTMSDKEITHDVKAVCSQEAMTGPCRAVMPRWYFDLSKGKCVRFIYGGCGGNRNNFESEDYCMAVCKAMIPPTPLPTNDVDVYFETSADDNEHARFQKAKEQLEIRHRNRMDRVKKEWEEAELQAKNLPKAERQTLIQHFQAMVKALEKEAASEKQQLVETHLARVEAMLNDRRRMALENYLAALQSDPPRPHRILQALRRYVRAENKDRLHTIRHYQHVLAVDPEKAAQMKSQVMTHLHVIEERRNQILSLLYKVPYVAQEIQEEIDELLQEQRADMDQFTASISETPVDVRVSSEESEEIPPFHPFHPFPALPENEDTQPELYHPMKKGSGVGEQDGGLIGAEEKVINSKNKVDENMVIDETLDVKEMIFNAERVGGLEEERESVGPLREDFSLSS
% Inhibition, Trypsin [1]: 99.6%
% Inhibition, GI Kallikrein [2]: 97%
% Inhibition, Chymotrypsin [12]: 61%

Source: patent publication US5677146A, “Human amyloid protein precursor homolog and kunitz-type inhibitor” (Zymogenetics, Inc., priority 1995, dated 1997)
